Experiments:
[1] = molecular target: T1, human LEPR extracellular domain expressed with a C-terminal myc-myc-hexahistidine tag (hLEPR.mmh) (human, UniProt P48357 22-839); experiment: Luminex, myc-captured full length extracellular domain
T1 construct: also called human LEPR-MMH; monomeric human LEPR
Experimental: Aliquots of microspheres with immobilized anti-myc monoclonal antibodies, prepared as described above, were added individually to 1 mL of the each of these protein supernatants. The microspheres were gently mixed, incubated for two hours at 25° C., washed twice with 1 mL of DBPS, centrifuged to remove the supernatant and finally resuspended in 1 mL of DPBS buffer. Forty-eight μL of anti-myc IgG coupled microspheres from individual reactions with full length human LEPR and with each of the human LEPR domain proteins were withdrawn and mixed together in 3.6 mL of PBS+20 mg/mL BSA+0.05% sodium azide (blocking buffer).
From this mixed pool, 75 μL of microspheres were plated per well on a 96 well filter plate (Millipore, Cat. No: MSBVN1250) and mixed with 25 μL of individual anti-human LEPR monoclonal antibodies (0.5 or 5 µg/mL), incubated for two hours at 25° C. and then washed twice with 200 μL of DPBS with 0.05% Tween 20 (washing buffer). […] After 30 minutes, the samples were washed twice with 200 μL of washing buffer and resuspended in 150 μL of wash buffer. The Median Fluorescence intensity (MFI) of the microspheres was measured in a Luminex Analyzer.

[2] = molecular target: T2, Macaca fascicularis LEPR extracellular domain expressed with a C-terminal myc-myc-hexahistidine tag … (Macaca fascicularis, UniProt Q9MYL0 22-837 (rhesus entry)); experiment: SPR, captured mAb, 25C
T2 construct: also called mfLEP.MMH
Experimental: Equilibrium dissociation constants (KD values) for LEPR binding to purified anti-LEPR monoclonal antibodies were determined using a real-time surface plasmon resonance biosensor using a Biacore 4000 instrument. All binding studies were performed in 10 mM HEPES, 150 mM NaCl, 3 mM EDTA, and 0.05% v/v Surfactant Tween-20, pH 7.4 (HBS-ET) running buffer at 25° C. and 37° C. The Biacore sensor surface was first derivatized by amine coupling with a monoclonal mouse anti-human Fc antibody (GE, #BR-1008-39) to capture anti-LEPR monoclonal antibodies. […] Kinetic association (kₐ) and dissociation (kd) rate constants were determined by fitting the real-time binding sensorgrams to a 1:1 binding model with mass transport limitation using Scrubber 2.0c curve-fitting software. Binding dissociation equilibrium constants (KD) and dissociative half-lives (t½) were calculated from the kinetic rate constants as: […]

[3] = molecular target: T3, full length human LEPR on cells (human, UniProt P48357 22-1165); experiment: cell-based or functional assay
T3 sequence: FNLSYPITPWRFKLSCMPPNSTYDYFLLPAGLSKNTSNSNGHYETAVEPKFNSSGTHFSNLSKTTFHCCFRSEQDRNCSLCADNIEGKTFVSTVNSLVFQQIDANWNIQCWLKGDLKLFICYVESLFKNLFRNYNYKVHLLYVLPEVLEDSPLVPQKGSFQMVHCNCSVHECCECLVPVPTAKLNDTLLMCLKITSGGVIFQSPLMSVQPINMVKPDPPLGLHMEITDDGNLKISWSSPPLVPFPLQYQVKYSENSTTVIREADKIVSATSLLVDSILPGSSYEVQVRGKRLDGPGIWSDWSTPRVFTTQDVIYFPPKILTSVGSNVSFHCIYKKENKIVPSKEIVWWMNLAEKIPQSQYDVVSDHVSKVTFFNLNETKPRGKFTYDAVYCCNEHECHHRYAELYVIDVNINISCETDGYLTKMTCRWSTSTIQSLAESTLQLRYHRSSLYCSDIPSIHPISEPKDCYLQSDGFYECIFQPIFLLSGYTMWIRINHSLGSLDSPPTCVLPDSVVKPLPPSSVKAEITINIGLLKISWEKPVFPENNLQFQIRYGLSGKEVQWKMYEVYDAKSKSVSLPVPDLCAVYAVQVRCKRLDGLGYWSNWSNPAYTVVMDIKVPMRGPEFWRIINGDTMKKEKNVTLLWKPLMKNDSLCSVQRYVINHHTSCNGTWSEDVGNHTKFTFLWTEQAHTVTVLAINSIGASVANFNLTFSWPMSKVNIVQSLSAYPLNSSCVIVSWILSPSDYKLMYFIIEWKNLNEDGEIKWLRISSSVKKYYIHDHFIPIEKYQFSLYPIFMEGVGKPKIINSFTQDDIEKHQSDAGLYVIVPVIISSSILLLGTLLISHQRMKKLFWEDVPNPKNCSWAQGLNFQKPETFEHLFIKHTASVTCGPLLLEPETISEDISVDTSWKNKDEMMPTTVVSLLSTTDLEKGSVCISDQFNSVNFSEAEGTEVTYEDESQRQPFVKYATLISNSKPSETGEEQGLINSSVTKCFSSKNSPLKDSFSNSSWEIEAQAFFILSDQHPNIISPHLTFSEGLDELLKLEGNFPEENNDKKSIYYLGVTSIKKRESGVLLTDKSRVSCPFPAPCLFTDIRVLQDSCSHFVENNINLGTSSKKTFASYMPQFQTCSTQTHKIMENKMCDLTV

[4] = molecular target: mouse LEPR extracellular domain expressed with a C-terminal myc-myc-hexahistidine tag (mLEPR.mmh) (mouse, UniProt P48356 22-839); experiment: SPR, captured mAb, 25C and 37C
[5] = molecular target: rat LEPR extracellular domain expressed with a C-terminal myc-myc-hexahistidine tag (rLEPR.mmh) (rat, UniProt Q62959 22-839); experiment: SPR, captured mAb, 25C and 37C
[6] = molecular target: T4, extracellular domain portion of LEPR protein expressed with a C-terminal human Fc tag (hLEPR.hFc) (human); experiment: blocking ELISA: 10 nM hLEPR.hFc to coated hLeptin, 500 nM Ab
T4 construct: also called dimeric human LEPR
Experimental: These antibody-protein or protein-protein complexes were then incubated for 1.5 hour at room temperature (RT). […] Samples were developed with a TMB solution (BD Biosciences, #555214; substrate A and B mixed at 1:1 ratio as per manufacturer's instructions) to produce a colorimetric reaction and then neutralized with 1M sulfuric acid before measuring absorbance at 450 nm on a Victor X5 plate reader.
Data analysis was performed using a sigmoidal dose-response model within Prism™ software (GraphPad). […] In the calculation, binding signal of 10 nM of hLEPR.hFc without the presence of the antibody was referenced as 100% binding or 0% blocking; and the baseline signal of buffer alone without the presence of hLEPR.hFc was referenced as 0% binding or 100% blocking.

Chain of rat LEPR extracellular domain expressed with a C-terminal myc-myc-hexahistidine tag (rLEPR.mmh) (Q62959 other isoform, or with tags, fused parts or gaps): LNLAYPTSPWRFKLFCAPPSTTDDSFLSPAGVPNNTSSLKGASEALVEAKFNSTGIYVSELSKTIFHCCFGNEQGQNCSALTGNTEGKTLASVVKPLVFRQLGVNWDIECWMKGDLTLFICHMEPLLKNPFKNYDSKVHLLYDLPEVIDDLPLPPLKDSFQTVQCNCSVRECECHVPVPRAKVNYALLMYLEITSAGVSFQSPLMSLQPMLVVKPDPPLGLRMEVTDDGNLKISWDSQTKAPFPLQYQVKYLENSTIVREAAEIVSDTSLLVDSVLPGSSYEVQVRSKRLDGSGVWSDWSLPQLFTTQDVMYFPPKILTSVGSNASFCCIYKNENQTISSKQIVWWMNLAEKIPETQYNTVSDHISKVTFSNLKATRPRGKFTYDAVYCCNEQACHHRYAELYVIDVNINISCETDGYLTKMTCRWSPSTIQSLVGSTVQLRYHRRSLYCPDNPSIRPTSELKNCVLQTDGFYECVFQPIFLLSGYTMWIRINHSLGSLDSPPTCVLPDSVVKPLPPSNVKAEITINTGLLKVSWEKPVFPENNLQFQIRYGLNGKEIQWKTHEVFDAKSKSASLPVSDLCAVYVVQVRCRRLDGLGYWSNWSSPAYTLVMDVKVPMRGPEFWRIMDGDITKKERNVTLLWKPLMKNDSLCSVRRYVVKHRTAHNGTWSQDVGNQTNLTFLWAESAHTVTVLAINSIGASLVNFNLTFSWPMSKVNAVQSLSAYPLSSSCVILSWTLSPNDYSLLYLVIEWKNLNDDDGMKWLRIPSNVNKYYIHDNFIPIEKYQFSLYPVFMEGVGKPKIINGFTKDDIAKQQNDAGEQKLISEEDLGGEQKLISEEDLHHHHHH
Chain of mouse LEPR extracellular domain expressed with a C-terminal myc-myc-hexahistidine tag (mLEPR.mmh) (P48356 other isoform, or with tags, fused parts or gaps): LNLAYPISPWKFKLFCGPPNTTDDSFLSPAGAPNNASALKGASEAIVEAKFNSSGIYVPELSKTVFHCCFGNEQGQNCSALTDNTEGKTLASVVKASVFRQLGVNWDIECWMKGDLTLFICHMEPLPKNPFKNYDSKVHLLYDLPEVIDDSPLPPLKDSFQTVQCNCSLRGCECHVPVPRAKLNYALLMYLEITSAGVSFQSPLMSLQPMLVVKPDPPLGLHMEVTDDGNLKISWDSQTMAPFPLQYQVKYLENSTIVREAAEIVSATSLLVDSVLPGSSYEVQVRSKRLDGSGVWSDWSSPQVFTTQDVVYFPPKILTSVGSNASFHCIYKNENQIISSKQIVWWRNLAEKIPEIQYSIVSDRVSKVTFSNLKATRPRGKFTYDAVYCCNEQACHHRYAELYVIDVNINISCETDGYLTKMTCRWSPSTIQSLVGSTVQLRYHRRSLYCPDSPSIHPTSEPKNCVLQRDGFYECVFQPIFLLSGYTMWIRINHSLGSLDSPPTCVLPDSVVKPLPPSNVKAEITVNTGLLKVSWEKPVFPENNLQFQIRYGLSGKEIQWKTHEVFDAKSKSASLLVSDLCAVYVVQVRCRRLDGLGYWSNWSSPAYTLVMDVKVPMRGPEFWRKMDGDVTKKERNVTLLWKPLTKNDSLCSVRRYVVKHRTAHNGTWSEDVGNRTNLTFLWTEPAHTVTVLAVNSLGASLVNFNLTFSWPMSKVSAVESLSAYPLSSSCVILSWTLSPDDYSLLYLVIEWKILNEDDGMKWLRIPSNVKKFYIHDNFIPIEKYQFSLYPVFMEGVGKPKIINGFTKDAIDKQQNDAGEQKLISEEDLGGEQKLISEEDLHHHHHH

B1: H4H18446P2 (antibody, human IgG4, V domains shown)
VH: EVQLVESGGGLVQPGGSLRLSCAASGFTFSNYGMTWVRQAPGKGLEWVSAITGGGGSTYYSNSVKGRFTISRDNSKNTVYLRMNSVRAEDTAVYYCAKYKWNFVDDWGQGTTVTVSS
VL: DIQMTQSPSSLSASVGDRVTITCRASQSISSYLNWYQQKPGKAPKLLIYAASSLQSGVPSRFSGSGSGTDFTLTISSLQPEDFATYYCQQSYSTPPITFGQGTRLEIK
notes: Fully human antibody with human IgG4 Fc (H4H prefix)
MFI [1]: 10500 MFI | 100 nM mfLEP.MMH Bound (RU) [2]: 23 RU | Kd [2]: 58.3 nM | koff [2]: 0.00112 s⁻¹ | kon [2]: 19300 M⁻¹ s⁻¹ | t½ [2]: 10 min | % activation, with 200 pM human Leptin [3]: 68% | % activation, without human Leptin [3]: 6% | EC50, STAT3-Luc reporter, with 200 pM human Leptin [3]: 3.42e-11 M | EC50, STAT3-Luc reporter, without human Leptin [3]: 0.373 nM | binding result [4]: no binding | binding result [5]: no binding | % blockade [6]: -5%

Source: US20250051465A1 (published 2025)
